Columns and labels:
[1] = biological target: human melanocortin-4 (MC4) receptor (human)
[2] = biological target: human melanocortin-1 (MC1) receptor (human)

Row | EC50 of cAMP response in transfected Hepa cells [1] | efficacy of cAMP response in transfected Hepa cells (% of the maximum response of α-MSH) [1] | cAMP generation in transfected L-cells (fold lower potency) [2] | Substance
1 | 0.1 µM | 75 | – | Pro^11 γ-MSH (peptide)
2 | – | – | 10 | β-MSH (peptide)
3 | 0.02 µM | 45 | – | γ-MSH (peptide)
